Laboratory results published in IntAct's records for PubMed 19264842.

B1: 1-phosphatidylinositol 4,5-bisphosphate phosphodiesterase gamma-1 (Homo sapiens), P19174 (parent)
chain: MAGAASPCANGCGPGAPSDAEVLHLCRSLEVGTVMTLFYSKKSQRPERKTFQVKLETRQITWSRGADKIEGAIDIREIKEIRPGKTSRDFDRYQEDPAFRPDQSHCFVILYGMEFRLKTLSLQATSEDEVNMWIKGLTWLMEDTLQAPTPLQIERWLRKQFYSVDRNREDRISAKDLKNMLSQVNYRVPNMRFLRERLTDLEQRSGDITYGQFAQLYRSLMYSAQKTMDLPFLEASTLRAGERPELCRVSLPEFQQFLLDYQGELWAVDRLQVQEFMLSFLRDPLREIEEPYFFLDEFVTFLFSKENSVWNSQLDAVCPDTMNNPLSHYWISSSHNTYLTGDQFSSESSLEAYARCLRMGCRCIELDCWDGPDGMPVIYHGHTLTTKIKFSDVLHTIKEHAFVASEYPVILSIEDHCSIAQQRNMAQYFKKVLGDTLLTKPVEISADGLPSPNQLKRKILIKHKKLAEGSAYEEVPTSMMYSENDISNSIKNGILYLEDPVNHEWYPHYFVLTSSKIYYSEETSSDQGNEDEEEPKEVSSSTELHSNEKWFHGKLGAGRDGRHIAERLLTEYCIETGAPDGSFLVRESETFVGDYTLSFWRNGKVQHCRIHSRQDAGTPKFFLTDNLVFDSLYDLITHYQQVPLRCNEFEMRLSEPVPQTNAHESKEWYHASLTRAQAEHMLMRVPRDGAFLVRKRNEPNSYAISFRAEGKIKHCRVQQEGQTVMLGNSEFDSLVDLISYYEKHPLYRKMKLRYPINEEALEKIGTAEPDYGALYEGRNPGFYVEANPMPTFKCAVKALFDYKAQREDELTFIKSAIIQNVEKQEGGWWRGDYGGKKQLWFPSNYVEEMVNPVALEPEREHLDENSPLGDLLRGVLDVPACQIAIRPEGKNNRLFVFSISMASVAHWSLDVAADSQEELQDWVKKIREVAQTADARLTEGKIMERRKKIALELSELVVYCRPVPFDEEKIGTERACYRDMSSFPETKAEKYVNKAKGKKFLQYNRLQLSRIYPKGQRLDSSNYDPLPMWICGSQLVALNFQTPDKPMQMNQALFMTGRHCGYVLQPSTMRDEAFDPFDKSSLRGLEPCAISIEVLGARHLPKNGRGIVCPFVEIEVAGAEYDSTKQKTEFVVDNGLNPVWPAKPFHFQISNPEFAFLRFVVYEEDMFSDQNFLAQATFPVKGLKTGYRAVPLKNNYSEDLELASLLIKIDIFPAKENGDLSPFSGTSLRERGSDASGQLFHGRAREGSFESRYQQPFEDFRISQEHLADHFDSRERRAPRRTRVNGDNRL

Variants of: B1
Conditions: with rac1_human RAC1, P63000

Variant | effect of a mutation on the interaction
P842L | disrupting interaction
